According to patent US20240052381A1, “BIOSYNTHESIS OF VANILLIN FROM ISOEUGENOL” (BASF SE, priority 2020, published 2024):

Assay: In vitro enzyme assay: formation of vanillin with isoeugenol as the substrate
Type: biochemical
Conditions: purified recombinant protein; 10 mM isoeugenol, pH 7.0, 30° C., 10 min; negative control heat-denatured enzyme gave no vanillin
Method: The enzyme activity of the putative isoeugenol monooxygenase was assayed by measuring the formation of vanillin with isoeugenol as the substrate. The reaction mixture contained 10 mM isoeugenol, 100 mM potassium phosphate buffer (pH 7.0), 10% (v/v) ethanol and an appropriate amount of enzyme, in a total volume of 1 ml. The reaction was started, by adding isoeugenol as ethanol solution, carried out at 30° C. for 10 min with reciprocal shaking (160 strokes min^−1) and stopped with the addition of 1 ml of methanol. After centrifugation at […], the supernatant was analyzed by HPLC for the determination of isoeugenol and vanillin and vanillyl alcohol. VpIEM enzyme treated in boiling water for 5 minutes was used as the negative control.
HPLC analysis of isoeugenol and vanillin was carried out with a Vanquish Ultimate 3000 system. Intermediates were separated by reverse-phase chromatography on a Dionex Acclaim 120 C18 column (particle size 3 μm; 150 by 2.1 mm) with a gradient of 0.15% (volume/volume) acetic acid (eluant A) and methanol (eluant B) in a range of 60 to 100% (vol/vol) eluant B and at a flow rate of 0.4 ml/min. For quantification, all intermediates were calibrated with external standards. The compounds were identified by their retention times, as well as the corresponding spectra, which were identified with a diode array detector in the system.

B1: VpIEM: putative isoeugenol monooxygenase from Violaceomyces palustris, expressed in E. coli and purified (protein, listed as Violaceomyces paulstris)
chain: MAPAPTVQDAAPVAVAVPSKATNKGSFVHPTDILPSGWPTATDLSGGAQPRRFEGTIYDVMVRGTIPKELHGTFYRIMPDYAEAPTYYKGGELNAPIDGDGTVAAFRFKDGNVDYRQRFVETDRFKVERRARKSMYGLYRNPYTHHPCVRQTVDSTANTNVVMHAGRFLAMKENGNAYELDPHTLKTLGYNPFKLPSKTMTAHPKQDAVTGNLVGFGYEAKGLATKDVYYFEVDTQGNIVHDLWLEAPWCAFIHDCALTPNYLVLMLWPFEADIERMKAGGHHWAYDYDKPITWITIPRGAKSKDEVKYWYWKNGMPIHTAAGYEDEKGRIIIDSSLVHGNAFPFFPPDSEEQRKRQEADGTPIAQFVRWTIDPSKDPNERLPDPEVVLDTPSEFPQIDNRFMGKEYSSAFINVFMPDRSDTGKNVFQGLNGLCHYRRKEGTADFYYAGDNCLIQEPVFSPRSKDAPEGDGFVLAIVDRLDANRSEVVIIDTRDFTKAVAAVQLPFAIRSGIHGQWIQGNTIPDFDTRGLVDLPKEEHWAPPEASAYDPNM
modifications: (1)..(551) Amino Acid Sequence of VpIEM
conversion of isoeugenol to vanillin (enzyme activity, HPLC): able to catalyze the conversion of isoeugenol to vanillin
